The values that follow come from paper PMC4072508, “Genome-Wide Prediction and Validation of Peptides That Bind Human Prosurvival Bcl-2 Proteins” (PLoS Computational Biology, 2014).

Holding throughout (experiment): peptide SPOT array, c-Myc-tagged receptor at 1 uM or 100 nM, anti-c-Myc-Cy3
For one assay, the target named is Bcl-xL, Q07817.
The next assay has as its target T1, Bfl-1, Q16548.
T1 chain: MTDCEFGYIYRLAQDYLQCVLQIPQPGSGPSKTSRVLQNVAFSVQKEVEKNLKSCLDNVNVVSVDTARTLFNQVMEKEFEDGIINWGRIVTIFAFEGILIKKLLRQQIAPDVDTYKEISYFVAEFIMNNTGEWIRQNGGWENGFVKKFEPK

A further assay concerns the target T2, Mcl-1, Q07820.
T2 chain: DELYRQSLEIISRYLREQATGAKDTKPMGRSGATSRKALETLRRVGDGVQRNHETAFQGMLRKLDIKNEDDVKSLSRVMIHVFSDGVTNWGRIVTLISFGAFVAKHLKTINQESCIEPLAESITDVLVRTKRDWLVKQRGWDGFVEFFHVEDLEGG

Sequence of Bcl-xL, Q07817 (Q07817 1-209): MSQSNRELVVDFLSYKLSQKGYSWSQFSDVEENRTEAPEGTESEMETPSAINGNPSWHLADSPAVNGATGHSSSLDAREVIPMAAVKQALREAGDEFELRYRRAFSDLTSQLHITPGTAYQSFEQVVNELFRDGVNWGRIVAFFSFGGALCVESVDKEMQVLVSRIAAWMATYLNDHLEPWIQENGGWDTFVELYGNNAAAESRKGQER

On to SQGKHGFTMAMNAFGDMTNEEFRQMM [CTSL2], for which the SPOT signal as a fraction of Bim BH3's signal on the same receptor and array with Bcl-xL, Q07817 turned out to be 0.08; with Bfl-1, Q16548 it was 0.08; with Mcl-1, Q07820, 0.09.
TAGLRPGARLLRVCGQTLPSLRPEAA [SIPA1]: the SPOT signal as a fraction of Bim BH3's signal on the same receptor and array was determined as 1.22 in the assay with Bcl-xL, Q07817; 0.8 with Bfl-1, Q16548; 0.91 with Mcl-1, Q07820.
Turning to THFLDEEVKLIKKMLDHLTNLHRLGG [FTL], the SPOT signal as a fraction of Bim BH3's signal on the same receptor and array with Bcl-xL, Q07817 turned out to be 0.07; with Bfl-1, Q16548, 0.04; with Mcl-1, Q07820, 0.05.
Turning to WTLFVYTKGNDRMIGDDLVNSYHLLL [RBL1], the SPOT signal as a fraction of Bim BH3's signal on the same receptor and array came to 0.08 with Bcl-xL, Q07817; 0.05 with Bfl-1, Q16548; 0.07 with Mcl-1, Q07820.
The matching figures for SKEVAILCSFLLGLLDSCFNTQLLSI [MFSD11]: 0.09, 0.04 and 0.05.
The matching figures for GVMTQEVGQLDQDMGDDVYQQYRSLT [HUWE1]: 0.02, 0.01 and 0.01.
The matching figures for PALLVHWAKCLQKMGRGLNSSYDQQE: 0.89, 0.47 and 0.51.
With EQWAREIGAQLRRMLDDLNAQYERRR, the SPOT signal as a fraction of Bim BH3's signal on the same receptor and array with Bcl-xL, Q07817 was found to be 0.19; with Bfl-1, Q16548, 0.09; with Mcl-1, Q07820, 0.11.
For QAGPVSSGLALRKLLDRVQLLNLLVT [CCDC57], in that order: 0.74, 0.34 and 0.42.
For the molecule ISSYMVLAPVFGYLLDRYNRKYLMCG [SPNS1], the SPOT signal as a fraction of Bim BH3's signal on the same receptor and array in the assay with Bcl-xL, Q07817 was 1.11; in the assay with Bfl-1, Q16548, 0.78; with Mcl-1, Q07820, 0.73.
As to TAAAAYRGAHLRGRLRTVYNTFRAAA [XXXX], the SPOT signal as a fraction of Bim BH3's signal on the same receptor and array with Bcl-xL, Q07817 worked out at 2.37; in the assay with Bfl-1, Q16548 it was 1.55; in the assay with Mcl-1, Q07820 it was 1.64.
The matching figures for QASREAGAAALRNVAQRLFENYQTQS [CCDC68]: 0.36, 0.18 and 0.21.
Take SDIRDDISEQDRHVGRTVRGHPRKKL [TMEM184C]: the SPOT signal as a fraction of Bim BH3's signal on the same receptor and array in the assay with Bcl-xL, Q07817 stood at 0.45; in the assay with Bfl-1, Q16548, 0.14; in the assay with Mcl-1, Q07820 it was 0.13.
The matching figures for AIILCNVCGNLCTDLDRFLHLHRRTK [MYCBP2]: 0.51, 0.28 and 0.51.
In the case of TSRINEVQVNLSLLLDDLLLPAQSTL [SPHKAP], the SPOT signal as a fraction of Bim BH3's signal on the same receptor and array with Bcl-xL, Q07817 was determined as 0.05; with Bfl-1, Q16548, 0.03; with Mcl-1, Q07820, 0.04.
For KIETTPESRYDAQIGDSVSLTCSTTG [VCAM1], in that order: 0.05, 0.03 and 0.03.
The matching figures for SQEPLEKAQLLALVLDQLIQSHHYAA [MCF2L2]: 0.06, 0.03 and 0.04.
For KLALEQRCRELRARLRRLEETLPRRI [KIF19], in that order: 1.14, 1.04 and 0.72.
Take LMARPAVALHFQSILDGFKEAVRYVL [SOS2]: the SPOT signal as a fraction of Bim BH3's signal on the same receptor and array with Bcl-xL, Q07817 was 0.48; with Bfl-1, Q16548, 0.44; in the assay with Mcl-1, Q07820, 0.84.
Consider RLRQLGVAKKFGVLSDNFKGKRIVLV [PPAT], for which the SPOT signal as a fraction of Bim BH3's signal on the same receptor and array turned out to be 1.65 with Bcl-xL, Q07817; 0.64 with Bfl-1, Q16548; 1.04 with Mcl-1, Q07820.
The matching figures for HTALENCASLDCIRADELQEALTSHC [MYO3A]: 0.05, 0.03 and 0.03.
Regarding LLDFFMVSILFSKLLDLLHKLQFVLT [PCNXL2], the SPOT signal as a fraction of Bim BH3's signal on the same receptor and array stood at 0.1 in the assay with Bcl-xL, Q07817; 0.07 with Bfl-1, Q16548; 0.08 with Mcl-1, Q07820.
The matching figures for VTLLSEVEKMLSNFLDCVQYKEIVKN [SYNE1]: 0.11, 0.06 and 0.06.
Consider WVKSIRICTPDGKLGDSCHPLTRKVP [PROK2], for which the SPOT signal as a fraction of Bim BH3's signal on the same receptor and array was found to be 1.01 with Bcl-xL, Q07817; 0.47 with Bfl-1, Q16548; 0.75 with Mcl-1, Q07820.
On to EQWAREIGAQDRRMADDLNAQYERRR, for which the SPOT signal as a fraction of Bim BH3's signal on the same receptor and array in the assay with Bcl-xL, Q07817 stood at 0.05; with Bfl-1, Q16548, 0.02; with Mcl-1, Q07820 it was 0.07.
The matching figures for PALLVHWAKCDQKMGRGLNSSYDQQE: 0.38, 0.26 and 0.41.
For SHFVACMTAIDNQMGDQHYSFYIETF [DOCK2], in that order: 0.08, 0.05 and 0.05.
In the case of HHSSQEMSSEDREYADSFGKCPGGRN [PCYT2], the SPOT signal as a fraction of Bim BH3's signal on the same receptor and array with Bcl-xL, Q07817 turned out to be 0.05; in the assay with Bfl-1, Q16548 it was 0.03; with Mcl-1, Q07820, 0.04.
